Experimental data taken from patent publication US12571058.

Target: histidine kinase UzcS (Caulobacter crescentus NA1000)
Assay: cell-based or functional assay

Sequence of histidine kinase UzcS (Caulobacter crescentus NA1000) (chain, as listed by the source limits assumed, form in doubt): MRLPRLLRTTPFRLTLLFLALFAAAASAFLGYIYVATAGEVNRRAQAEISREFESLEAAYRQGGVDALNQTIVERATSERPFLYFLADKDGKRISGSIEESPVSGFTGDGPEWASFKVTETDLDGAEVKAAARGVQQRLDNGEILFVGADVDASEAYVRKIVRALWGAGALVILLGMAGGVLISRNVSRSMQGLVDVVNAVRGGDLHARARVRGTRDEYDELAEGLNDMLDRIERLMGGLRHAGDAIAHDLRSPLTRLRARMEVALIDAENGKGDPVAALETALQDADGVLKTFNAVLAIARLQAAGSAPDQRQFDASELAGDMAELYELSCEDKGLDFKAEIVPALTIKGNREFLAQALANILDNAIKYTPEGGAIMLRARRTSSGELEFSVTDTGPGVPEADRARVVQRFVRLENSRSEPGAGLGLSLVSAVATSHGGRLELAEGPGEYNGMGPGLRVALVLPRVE

fold decrease in U detection limit of UzcRS (reporter fluorescence with and without UzcY, FIG. 12): > 4 fold
Substance: UzcY
